Measurements as given in patent publication US20080070264A1, “Intracellular Signaling-Induced Ret-Independent Gdnf Receptor-Effected Morphological Changes” (JPMORGAN CHASE BANK N.A., priority 2003, published 2008).
“Also recorded” adds a separate entry of the source.

Tests used:
[1] = test system: ret −/−, ret +/− and ret +/+ kidney explants; test: Ureteric branching in cultured E11 urogenital block explants; parameters: species or system mouse
Experimental: FIG. 8A-FIG. 8D: Urogenital blocks including the Wolffian duct (wd), mesonephros (meso) and metanephros (meta) were dissected from E11 ret −/− (panels A, B), ret +/− (panel C) and ret +/+ (panel D) mouse embryos. The two urogenital blocks from the embryos were separately cultured for 4 days. One side was cultured without GDNF (panels A, C, D) and the other side with 50 ng/ml of GDNF (panel B). Urogenital block explants were fixed and immunostained with pan-cytokeratin antibodies. Scale bar: 200 μm.
FIG. 8E: The number of ureteric branches of ret −/−, ret +/− and ret +/+ kidneys with or without GDNF supplementation. Numbers in parenthesis indicate the kidney explants counted. […] Each result represents the mean±SEM (n=5).
To analyze the possible role of RET-independent, GFRα1-mediated signaling in ureteric budding and branching during nephrogenesis, the ability of exogenous GDNF to induce ureteric budding or sustain its branching in ret-deficient mice was tested. E11 ret −/− urogenital blocks including kidney rudiments were cultured for 4 days with or without 50 ng/ml of GDNF (FIG. 8). […] Thus, RET-independent signaling by GDNF has an apparent role in the ureteric branching, but may be less significant in the primary bud formation.

MET = MET phosphorylation in SHEP neuroblastoma cells; format: cell-based, human; settings: GDNF 0.1 pg/ml; SHEP cells express GFRα1 but not RET; data not shown
Experimental: FIG. 7B: SHEP cells were grown with GDNF (10 ng/ml (lanes 2-4) or 5 pg/ml (lanes 5-7)) or HGF (10 ng/ml (lanes 8-9)) in the presence of PP2 (1 μM (lanes 3 and 6) and 10 μM (lanes 4 and 7)). To exclude a possible cytotoxic effect of the solvent, DMSO was added to the controls. […] The numbers below the lane indicate the fold of induction of MET tyrosine kinase. The results are representative of three independent experiments.
(§1) To detect MET activation, GFRα1- and RET/GFRα1-expressing MDCK or SHEP cells were starved overnight in MEM or RPMI 1640 with 1% FCS, respectively, and in serum-free medium for 2 h prior the induction. After 15 min incubation at 37° C. with GDNF (at indicated concentrations) or with 50 ng/ml HGF, cells were lysed as described. Cleared cell lysates were incubated with anti-MET antibodies (Santa Cruz Biotechnologies, Inc.) overnight at 4° C. Immunoprecipitates were collected with protein A-SEPHAROSE (Amersham Pharmacia Biotech), washed, separated by SDS-PAGE and transferred to HYBOND-ECL membranes. Membranes were immunoblotted with anti-phospho-tyrosine antibodies (Upstate Group Inc.) or anti-MET antibodies.
For all experiments, densitometry and quantifications were performed using TINA 2.0 program (Raytest, Straubenhardt, Germany).
For the inhibition of MET, and Src activation, SHEP or GFRα1- and RET/GFRα1-expressing MDCK cells were starved as described above. 1 or […] of the inhibitor PP2 (Calbiochem) was added 30 min before induction by GDNF or HGF. DMSO (dimethyl sulfoxide) was added to the positive controls together with GDNF or HGF.

RET = molecular target: T1, RET (UniProt P07949+Q62997); test: RET phosphorylation in RET/GFRα1-expressing MDCK cells; format: cell-based, dog
T1 construct: expressed in transfected cells
T1 sequence (P07949 29-1114): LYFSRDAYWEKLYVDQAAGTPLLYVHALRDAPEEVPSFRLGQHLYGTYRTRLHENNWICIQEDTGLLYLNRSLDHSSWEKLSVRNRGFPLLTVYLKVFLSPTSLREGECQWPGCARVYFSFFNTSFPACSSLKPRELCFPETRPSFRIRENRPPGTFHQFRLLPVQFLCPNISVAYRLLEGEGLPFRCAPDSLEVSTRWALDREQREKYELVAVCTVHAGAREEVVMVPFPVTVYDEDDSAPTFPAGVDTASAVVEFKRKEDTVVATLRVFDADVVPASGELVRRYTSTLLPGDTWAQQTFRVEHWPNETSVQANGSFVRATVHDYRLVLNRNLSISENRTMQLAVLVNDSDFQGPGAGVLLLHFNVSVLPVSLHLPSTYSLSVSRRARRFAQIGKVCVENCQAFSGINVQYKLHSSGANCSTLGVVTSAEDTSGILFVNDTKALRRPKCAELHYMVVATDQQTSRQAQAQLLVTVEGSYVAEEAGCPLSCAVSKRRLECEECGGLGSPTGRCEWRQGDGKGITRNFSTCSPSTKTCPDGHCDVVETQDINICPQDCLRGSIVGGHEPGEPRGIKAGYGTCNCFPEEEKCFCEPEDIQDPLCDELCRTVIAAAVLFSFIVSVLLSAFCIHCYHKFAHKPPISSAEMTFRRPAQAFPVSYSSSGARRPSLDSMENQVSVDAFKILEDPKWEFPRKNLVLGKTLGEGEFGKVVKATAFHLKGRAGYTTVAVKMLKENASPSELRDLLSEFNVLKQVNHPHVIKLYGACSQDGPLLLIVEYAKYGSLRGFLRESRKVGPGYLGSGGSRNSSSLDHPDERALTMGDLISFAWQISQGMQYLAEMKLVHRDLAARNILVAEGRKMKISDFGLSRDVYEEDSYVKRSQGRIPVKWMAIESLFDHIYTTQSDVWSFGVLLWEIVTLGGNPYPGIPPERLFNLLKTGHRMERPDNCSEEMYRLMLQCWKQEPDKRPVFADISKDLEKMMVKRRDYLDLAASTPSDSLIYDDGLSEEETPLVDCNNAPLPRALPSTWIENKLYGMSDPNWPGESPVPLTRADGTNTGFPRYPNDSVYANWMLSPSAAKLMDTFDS
T1 sequence (Q62997 25-430 limits assumed): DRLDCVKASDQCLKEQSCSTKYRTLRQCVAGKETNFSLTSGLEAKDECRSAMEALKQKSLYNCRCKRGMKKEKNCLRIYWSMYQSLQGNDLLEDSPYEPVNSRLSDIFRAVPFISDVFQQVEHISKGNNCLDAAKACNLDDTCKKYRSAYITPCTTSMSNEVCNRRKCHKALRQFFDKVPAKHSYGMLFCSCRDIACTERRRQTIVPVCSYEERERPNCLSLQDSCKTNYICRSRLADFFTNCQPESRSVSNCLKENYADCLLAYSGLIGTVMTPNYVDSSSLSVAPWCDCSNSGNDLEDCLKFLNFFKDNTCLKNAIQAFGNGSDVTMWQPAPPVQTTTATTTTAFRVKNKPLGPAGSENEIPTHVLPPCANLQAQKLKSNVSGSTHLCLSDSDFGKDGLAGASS
Experimental: FIG. 4D: Dose-dependent activation of RET by GDNF in RET/GFRα1-expressing MDCK cells. […]. […] The numbers below the lanes indicate the fold of induction of RET tyrosine kinase. IP, immunoprecipitation; WB, Western blotting; P-tyr, phospho-tyrosine. The results are representative of three independent experiments.
as §1
The above procedure was also followed to detect RET phosphorylation in RET/GFRα1-expressing MDCK, however, for these experiments, anti-RET antibodies (Santa Cruz Biotechnologies, Inc.) were used for the immunoprecipitation and immunoblotting.

[2] = test system: RET/GFRα1-expressing MDCK cells; test: Boyden chamber cell migration and chemotaxis assay; format: cell-based, dog
Experimental: (§2) FIG. 3A: In Boyden chamber chemotaxis assays, mock-transfected, GFRα1-expressing and RET/GFRα1-expressing cells were exposed to GDNF, and wild-type MDCK to HGF. The number of cells was counted as described in Materials and Methods. +/+=GDNF at 100 ng/ml or HGF at 50 ng/ml was added to both chambers to assay chemokinesis. Each result represents the mean±SEM (n=3). For each case, p<0.001.
(§3) 5×10^4 MDCK cells (GFRα1-, RET/GFRα1-expressing and mock transfected) were suspended in 300 µl of MEM with 10% FCS and seeded into 24-well cell culture inserts with the filters (Boyden chambers), pore size 8 μm (Falcon). The assay was done as described (Tang et al., 1998). Briefly, GDNF or HGF was added to the upper, or both the upper and lower chambers at the marked concentrations. After 48 h incubation, non-migrated cells on the upper surface of the filters were scrapped. Membranes with the cells on the lower surface were washed with PBS, fixed by 3% glutaraldehyde in PBS, stained with May-Grünwald Giemsa (MGG) solution, dehydrated and mounted on the slides. Cells in eight fields of each membrane were counted under the light microscope (Magnification=100×). The average and standard error of the mean were calculated. Statistical significance of the differences was estimated by t-test.
(§4) Guided migration of cells towards a chemoattractant is referred to as chemotaxis, whereas enhanced cellular motility is called chemokinesis. Chemotaxis can be tested in the Boyden dual chamber assay by adding the test substance to the lower chamber only, and chemokinesis by adding test substance to both upper and lower chambers. […] Similarly, the chemotactic migration of RET/GFRα1co-expressing MDCK cells is stimulated by GDNF in the presence of soluble GFRα1 (Tang et al., 1998).

[3] = test system: GFRα1-expressing, RET-deficient MDCK cells; test: Boyden chamber cell migration and chemotaxis assay; format: cell-based, dog
Experimental: as §2, §3, §4

[4] = GDNF 100 ng/ml added to both chambers

B1: GDNF: recombinant glial cell line-derived neurotrophic factor from Cephalon Inc. (baculovirus-infected insect cells) or R&D Systems, Inc. (mouse myeloma NSO) (protein, UniProt P39905 78-211, looked up)
Glial cell line-derived …: SPDKQMAVLPRRERNRQAAAANPENSRGKGRRGQRGKNRGCVLTAIHLNVTDLGLGYETKEELIFRYCSGSCDAAETTYDKILKNLSRNRRLVSDKVGQACCRPIAFDDDLSFLDDNLVYHILRKHSAKRCGCI
- number of ureteric bud tips ([1]; ret +/− explants, GDNF 50 ng/ml, 4 days culture): increased the number of ureteric bud tips
- number of ureteric bud tips / ureteric branching ([1]; ret −/− explants, GDNF 50 ng/ml, 4 days culture): increased but not to the level seen in wild type kidneys; also recorded: significantly increased ureteric branching
- number of urogenital explants completely lacking a ureteric bud ([1]; ret −/− explants, with or without exogenous GDNF): remained the same
- number of ureteric bud tips ([1]; wild-type explants, GDNF 50 ng/ml, 4 days culture): increased the number of ureteric bud tips
- MET phosphorylation (MET): induced rapid MET phosphorylation
- GDNF concentration at which RET phosphorylation reached saturation (RET): 10 ng/mL
- GDNF concentration at which RET phosphorylation was observed (RET): 0.1 pg/mL
- time to RET activation (RET; data not shown): ≥ 2 h
- chemotactic migration ([2]; Boyden chamber, 48 h): induced chemotactic migration
- migration with ligand in both chambers compared to the maximal chemotactic response (chemokinesis) [2, 4]: reduced threefold
- chemotactic response ([3]; Boyden chamber, 48 h): did not demonstrate a chemotactic response
- migration with ligand in both chambers (chemokinesis) [3, 4]: only slightly reduced
